Test results as given in patent US20160024487.

What was measured:
human α-thrombin (FIIa) = human α-thrombin (FIIa) (UniProt P00734)
[1] = test system: Lys(Dnp)-ATNATAMPRIVGG-Lys(Abz)
[2] = test system: Lys(Dnp)-ATNATANPRIVGG-Lys(Abz)
[3] = test system: Lys(Dnp)-ATNATARPRIVGG-Lys(Abz)
[4] = test system: Lys(Dnp)-ATNATAVPRIVGG-Lys(Abz)
[5] = test system: Lys(Dnp)-ATNATDEPRIVGG-Lys(Abz)
[6] = test system: Lys(Dnp)-ATNATDFPRIVGG-Lys(Abz)
[7] = test system: Lys(Dnp)-ATNATDHPRIVGG-Lys(Abz)
[8] = test system: Lys(Dnp)-ATNATDIPRIVGG-Lys(Abz)
[9] = test system: Lys(Dnp)-ATNATDKPRIVGG-Lys(Abz)
[10] = test system: Lys(Dnp)-ATNATEAPRIVGG-Lys(Abz)
[11] = test system: Lys(Dnp)-ATNATEPPRIVGG-Lys(Abz)
[12] = test system: Lys(Dnp)-ATNATEVPRIVGG-Lys(Abz)
[13] = test system: Lys(Dnp)-ATNATFIPRIVGG-Lys(Abz)
[14] = test system: Lys(Dnp)-ATNATFQPRIVGG-Lys(Abz)
[15] = test system: Lys(Dnp)-ATNATFWPRIVGG-Lys(Abz)
[16] = test system: Lys(Dnp)-ATNATGNPRIVGG-Lys(Abz)
[17] = test system: Lys(Dnp)-ATNATHFPRIVGG-Lys(Abz)
[18] = test system: Lys(Dnp)-ATNATHGPRIVGG-Lys(Abz)
[19] = test system: Lys(Dnp)-ATNATHHPRIVGG-Lys(Abz)
[20] = test system: Lys(Dnp)-ATNATHNPRIVGG-Lys(Abz)
[21] = test system: Lys(Dnp)-ATNATIDPRIVGG-Lys(Abz)
[22] = test system: Lys(Dnp)-ATNATINPRIVGG-Lys(Abz)
[23] = test system: Lys(Dnp)-ATNATKHPRIVGG-Lys(Abz)
[24] = test system: Lys(Dnp)-ATNATKMPRIVGG-Lys(Abz)
[25] = test system: Lys(Dnp)-ATNATKTPRIVGG-Lys(Abz)
[26] = test system: Lys(Dnp)-ATNATKYPRIVGG-Lys(Abz)
[27] = test system: Lys(Dnp)-ATNATLVPRIVGG-Lys(Abz)
[28] = test system: Lys(Dnp)-ATNATNDPRIVGG-Lys(Abz)
[29] = test system: Lys(Dnp)-ATNATNGPRIVGG-Lys(Abz)
[30] = test system: Lys(Dnp)-ATNATNPPRIVGG-Lys(Abz)
[31] = test system: Lys(Dnp)-ATNATPAPRIVGG-Lys(Abz)
[32] = test system: Lys(Dnp)-ATNATPDPRIVGG-Lys(Abz)
[33] = test system: Lys(Dnp)-ATNATPFPRIVGG-Lys(Abz)
[34] = test system: Lys(Dnp)-ATNATQDPRIVGG-Lys(Abz)
[35] = test system: Lys(Dnp)-ATNATQNPRIVGG-Lys(Abz)
[36] = test system: Lys(Dnp)-ATNATQPPRIVGG-Lys(Abz)
[37] = test system: Lys(Dnp)-ATNATQQPRIVGG-Lys(Abz)
[38] = test system: Lys(Dnp)-ATNATRIPRIVGG-Lys(Abz)
[39] = test system: Lys(Dnp)-ATNATSSPRIVGG-Lys(Abz)
[40] = test system: Lys(Dnp)-ATNATTDPRIVGG-Lys(Abz)
[41] = test system: Lys(Dnp)-ATNATTEPRIVGG-Lys(Abz)
[42] = test system: Lys(Dnp)-ATNATTNPRIVGG-Lys(Abz)
[43] = test system: Lys(Dnp)-ATNATVFPRIVGG-Lys(Abz)
[44] = test system: Lys(Dnp)-ATNATVLPRIVGG-Lys(Abz)
[45] = test system: Lys(Dnp)-ATNATVSPRIVGG-Lys(Abz)
[46] = test system: Lys(Dnp)-ATNATWPPRIVGG-Lys(Abz)
[47] = test system: Lys(Dnp)-ATNATYKPRIVGG-Lys(Abz)
[48] = test system: Lys(Dnp)-DFLAEGGGPRIVGG-Lys(Abz)
[49] = test system: Lys(Dnp)-DNEEGFFSARIVGG-Lys(Abz)
[50] = test system: Lys(Dnp)-DQVTVAMTPRIVGG-Lys(Abz)
[51] = test system: Lys(Dnp)-EDSDRAIEGRIVGG-Lys(Abz)
[52] = test system: Lys(Dnp)-NESTTKIKPRIVGG-Lys(Abz)
[53] = test system: Lys(Dnp)-SEYQTFFNPRIVGG-Lys(Abz)
[54] = test system: PAR 1 control substrate sequence [Lys(Dnp)-ATNATLDPRIVGG-Lys(Abz)]
[55] = test system: 21k-HEP-[N]-FX ins[194]>[DFLAEGGGVR]-HPC4
21k-HEP-[N]-FX ins[194]>[DFLAEGGGVR]-HPC4, sequence (chain, as listed by the source): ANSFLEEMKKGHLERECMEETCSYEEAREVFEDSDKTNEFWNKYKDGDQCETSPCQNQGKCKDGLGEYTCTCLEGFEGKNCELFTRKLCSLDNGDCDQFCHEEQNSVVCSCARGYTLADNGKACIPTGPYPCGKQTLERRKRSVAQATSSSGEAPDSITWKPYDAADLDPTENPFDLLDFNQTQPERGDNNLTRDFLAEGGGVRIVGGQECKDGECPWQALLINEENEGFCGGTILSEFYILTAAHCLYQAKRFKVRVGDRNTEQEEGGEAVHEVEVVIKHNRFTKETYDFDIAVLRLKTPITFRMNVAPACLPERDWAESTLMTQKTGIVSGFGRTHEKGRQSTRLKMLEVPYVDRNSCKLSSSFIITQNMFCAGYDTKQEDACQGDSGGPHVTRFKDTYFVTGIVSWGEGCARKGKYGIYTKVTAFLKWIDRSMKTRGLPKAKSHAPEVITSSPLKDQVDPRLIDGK

[56] = test system: 40k-HEP-[N]-FX ins[194]>[DFLAEGGGVR]-HPC4
[57] = test system: 73k-HEP-[N]-FX ins[194]>[DFLAEGGGVR]-HPC4
[58] = test system: At least 20 sequences selected from the QF-substrate library
[59] = test system: FX ins[194]>[DFLAEGGGPR]-HPC4
FX ins[194]>[DFLAEGGGPR]-HPC4, sequence (chain, as listed by the source): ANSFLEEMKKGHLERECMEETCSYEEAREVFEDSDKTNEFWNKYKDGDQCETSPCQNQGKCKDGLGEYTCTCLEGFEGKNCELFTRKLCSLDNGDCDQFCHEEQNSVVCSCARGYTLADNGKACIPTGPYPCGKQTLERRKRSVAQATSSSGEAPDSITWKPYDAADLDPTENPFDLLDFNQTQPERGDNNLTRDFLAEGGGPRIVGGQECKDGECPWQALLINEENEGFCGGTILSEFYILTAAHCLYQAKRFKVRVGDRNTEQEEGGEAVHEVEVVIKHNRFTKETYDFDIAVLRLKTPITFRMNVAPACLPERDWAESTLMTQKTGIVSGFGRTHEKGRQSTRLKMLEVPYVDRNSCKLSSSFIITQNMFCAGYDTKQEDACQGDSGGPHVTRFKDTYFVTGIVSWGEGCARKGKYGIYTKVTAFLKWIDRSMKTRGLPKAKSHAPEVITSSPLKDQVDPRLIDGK

[60] = test system: FX ins[194]>[DFLAEGGGVR]-HPC4
[61] = test system: FpA_P quenched fluorescence substrate Lys(Dnp)-DFLAEGGGPRIVGG-Lys(Abz)

## FX-HPC4
Human α-thrombin (FIIa)
  kcat/KM: No Activity

## Human plasma purified α-thrombin
[1]
  kcat/KM: 9000 M⁻¹ s⁻¹
[2]
  kcat/KM: 4000 M⁻¹ s⁻¹
[3]
  FIIa kcat/KM: 20000 M⁻¹ s⁻¹
  kcat/KM: 20000 M⁻¹ s⁻¹
[4]
  FIIa kcat/KM: 9700 M⁻¹ s⁻¹
  kcat/KM: 9700 M⁻¹ s⁻¹
[5]
  kcat/KM: 0.0004 M⁻¹ s⁻¹
[6]
  kcat/KM: 600 M⁻¹ s⁻¹
[7]
  kcat/KM: 1000 M⁻¹ s⁻¹
[8]
  kcat/KM: 30 M⁻¹ s⁻¹
[9]
  kcat/KM: 10 M⁻¹ s⁻¹
[10]
  kcat/KM: 400 M⁻¹ s⁻¹
[11]
  kcat/KM: 2 M⁻¹ s⁻¹
[12]
  kcat/KM: 200 M⁻¹ s⁻¹
[13]
  kcat/KM: 7000 M⁻¹ s⁻¹
[14]
  FIIa kcat/KM: 30000 M⁻¹ s⁻¹
  kcat/KM: 30000 M⁻¹ s⁻¹
[15]
  FIIa kcat/KM: 20000 M⁻¹ s⁻¹
  kcat/KM: 20000 M⁻¹ s⁻¹
[16]
  kcat/KM: 700 M⁻¹ s⁻¹
[17]
  kcat/KM: 1000 M⁻¹ s⁻¹
[18]
  kcat/KM: 1000 M⁻¹ s⁻¹
[19]
  kcat/KM: 2000 M⁻¹ s⁻¹
[20]
  kcat/KM: 800 M⁻¹ s⁻¹
[21]
  kcat/KM: 2000 M⁻¹ s⁻¹
[22]
  kcat/KM: 10000 M⁻¹ s⁻¹
[23]
  kcat/KM: 900 M⁻¹ s⁻¹
[24]
  kcat/KM: 800 M⁻¹ s⁻¹
[25]
  kcat/KM: 610 M⁻¹ s⁻¹
[26]
  kcat/KM: 700 M⁻¹ s⁻¹
[27]
  FIIa kcat/KM: 30000 M⁻¹ s⁻¹
  kcat/KM: 30000 M⁻¹ s⁻¹
[28]
  kcat/KM: 3 M⁻¹ s⁻¹
[29]
  kcat/KM: 500 M⁻¹ s⁻¹
[30]
  kcat/KM: 9 M⁻¹ s⁻¹
[31]
  kcat/KM: 7000 M⁻¹ s⁻¹
[32]
  kcat/KM: 2000 M⁻¹ s⁻¹
[33]
  FIIa kcat/KM: 9000 M⁻¹ s⁻¹
  kcat/KM: 9000 M⁻¹ s⁻¹
[34]
  kcat/KM: 500 M⁻¹ s⁻¹
[35]
  kcat/KM: 2000 M⁻¹ s⁻¹
[36]
  kcat/KM: 0 M⁻¹ s⁻¹
[37]
  kcat/KM: 10000 M⁻¹ s⁻¹
[38]
  kcat/KM: 1000 M⁻¹ s⁻¹
[39]
  kcat/KM: 1000 M⁻¹ s⁻¹
[40]
  kcat/KM: 1000 M⁻¹ s⁻¹
[41]
  kcat/KM: 700 M⁻¹ s⁻¹
[42]
  kcat/KM: 600 M⁻¹ s⁻¹
[43]
  FIIa kcat/KM: 8400 M⁻¹ s⁻¹
  kcat/KM: 8400 M⁻¹ s⁻¹
[44]
  kcat/KM: 5000 M⁻¹ s⁻¹
[45]
  FIIa kcat/KM: 7600 M⁻¹ s⁻¹
  kcat/KM: 7600 M⁻¹ s⁻¹
[46]
  FIIa kcat/KM: 9700 M⁻¹ s⁻¹
  kcat/KM: 9700 M⁻¹ s⁻¹
[47]
  FIIa kcat/KM: 5000 M⁻¹ s⁻¹
  kcat/KM: 5000 M⁻¹ s⁻¹
[48]
  kcat/KM: 40000 M⁻¹ s⁻¹
[49]
  kcat/KM: 300 M⁻¹ s⁻¹
[50]
  kcat/KM: 30000 M⁻¹ s⁻¹
[51]
  kcat/KM: 0 M⁻¹ s⁻¹
[52]
  kcat/KM: 20000 M⁻¹ s⁻¹
[53]
  kcat/KM: 20000 M⁻¹ s⁻¹
[54]
  kcat/KM: 3000 M⁻¹ s⁻¹

## human α-thrombin (FIIa)
[55]
  kinetic parameters (kcat, KM and kcat/KM) of activation, compared with the unconjugated molecule: there is no significant effect of hepylation on the observed kinetic parameters for the tested molecule
[56]
  kinetic parameters (kcat, KM and kcat/KM) of activation, compared with the unconjugated molecule: there is no significant effect of hepylation on the observed kinetic parameters for the tested molecule
[57]
  kinetic parameters (kcat, KM and kcat/KM) of activation, compared with the unconjugated molecule: there is no significant effect of hepylation on the observed kinetic parameters for the tested molecule
[58]
  cleavage rate (kcat/KM) by thrombin, fold improvement over the parent PAR-1 sequence: >20-fold improved cleavage rates (kcat/KM) over the parent PAR-1 sequence
FX [191-194]>[LTPR]-HPC4
FX [191-194]>[LTPR]-HPC4, sequence (chain, as listed by the source): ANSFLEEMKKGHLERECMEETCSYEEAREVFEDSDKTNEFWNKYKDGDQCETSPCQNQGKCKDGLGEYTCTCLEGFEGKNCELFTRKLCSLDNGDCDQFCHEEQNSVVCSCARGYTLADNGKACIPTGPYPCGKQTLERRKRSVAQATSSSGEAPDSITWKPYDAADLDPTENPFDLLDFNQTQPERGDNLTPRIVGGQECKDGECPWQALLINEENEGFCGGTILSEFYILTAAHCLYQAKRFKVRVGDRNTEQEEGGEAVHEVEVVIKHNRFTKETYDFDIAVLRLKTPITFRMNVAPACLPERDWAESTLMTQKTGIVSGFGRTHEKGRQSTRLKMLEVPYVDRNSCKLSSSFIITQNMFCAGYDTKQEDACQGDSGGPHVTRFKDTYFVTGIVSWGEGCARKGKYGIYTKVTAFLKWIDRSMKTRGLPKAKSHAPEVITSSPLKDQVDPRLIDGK
  kcat of activation by α-thrombin, relative to FX [191-194]>[MTPR]-HPC4: each of which have 5-10 fold higher kcat values than FX [191-194]>[MTPR]-HPC4
[59]
  activation rate (kcat/KM) by α-thrombin, relative to FX ins[194]>[DFLAEGGGVR]-HPC4: This activation rate is 10× the observed activation rate for a variant having the unmodified FpA sequence (FX ins[194]>[DFLAEGGGVR]-HPC4)
[60]
  kcat of activation by α-thrombin, relative to FX [191-194]>[MTPR]-HPC4: each of which have 5-10 fold higher kcat values than FX [191-194]>[MTPR]-HPC4
[61]
  cleavage rate (kcat/KM) by thrombin: The most improved natural substrate was shown to be the FpA_P sequence, which has a proline residue at X2 instead of the naturally occurring valine
